# In US20120071629A1, “APPOPTOSIN AND USES THEREOF FOR TREATING NEURODEGENERATIVE DISEASE AND CANCER” (Tsinghua University, priority 2006, published 2012):
# B1: 168: Appoptosin polypeptide; human amino acid sequence SEQ ID NO:2; expressed in cells by transfection (protein)
# chain: MIQNSRPSLLQPQDVGDTVETLMLHPVIKAFLCGSISGTCSTLLFQPLDLLKTRLQTLQPSDHGSRRVGMLAVLLKVVRTESLLGLWKGMSPSIVRCVPGVGIYFGTLYSLKQYFLRGHPPTALESVMLGVGSRSVAGVCMSPITVIKTRYESGKYGYESIYAALRSIYHSEGHRGLFSGLTATLLRDAPFSGIYLMFYNQTKNIVPHDQVDATLIPITNFSCGIFAGILASLVTQPAGVIKTHMQLYPLKFQWIGQAVTLIFKDYGLRGFFQGGIPRALRRTLMAAMAWTVYEEMMAKMGLKS
# modifications: Description of Artficial Sequence note = synthetic construct
# notes: Appoptosin polypeptide; expressed in cells by transfection
# B2: 118-304AA: deletion mutant of myc-168, amino acids 118-304 (protein)
# chain: GHPPTALESVMLGVGSRSVAGVCMSPITVIKTRYESGKYGYESIYAALRSIYHSEGHRGLFSGLTATLLRDAPFSGIYLMFYNQTKNIVPHDQVDATLIPITNFSCGIFAGILASLVTQPAGVIKTHMQLYPLKFQWIGQAVTLIFKDYGLRGFFQGGIPRALRRTLMAAMAWTVYEEMMAKMGLKS
# modifications: left off: small tags and cut ends
# Experiments:
# [1] = system: N2a cells; assay: BH3I- and staurosporine-induced caspase 3 cleavage/activation; type: cell-based
# Procedure: N2a cells were first subjected to downregulation of 168 by RNAi, and were then treated with apoptotic reagents BH3I and staurosporine. […] In addition, 168 is subjected to cleavage under apoptotic treatments (indicated by *).
# [2] = target: T1, APP-AICD(C99) (Homo sapiens, UniProt P05067); assay: Anti-myc IP and anti-HA Western blot in co-transfected 293T cells; type: binding
# T1 construct: Deletion mutants of HA-168 and myc-tagged APP-AICD(C99) were co-transfected into 293T cells; myc; expressed in transfected cells; host or cells: 293T cells
# Excerpt: IP-WB the minimal domain of 168 to interact with AICD is 118-264AA. Deletion mutants of HA-168 and myc-tagged APP-AICD(C99) were co-transfected into 293T cells and cell lysates subjected to anti-myc IP and anti-HA WB to detect 168-APP interaction (upper panel). Protein expressions are shown in the middle and lower panels.
# [3] = system: N2a cells stably expressing human APP Swedish mutations; assay: Aβ40 generation, IP and urea gel; type: cell-based; settings: overexpression of 168, 2 days, secreted Aβ in conditional media
# Procedure: N2a cells stably expressing human APP Swedish mutations were transfected with 168 for 2 days. Secretary Aβ in conditional media were immunoprecipitated using antibody 4G8 and detected using antibody 6E10. The samples were analyzed using Urea gel, which can differentiate variant Aβ species.
# [4] = target: T2, APP-AICD (AID) (Homo sapiens, UniProt P05067); assay: Yeast two-hybrid assay with quantitative β-galactosidase activity; type: binding; settings: yeast AH109 co-transfected with pGBKT7-AID; ONPG substrate
# T2 construct: The intracellular end of human APP was amplified, i.e., AID, was amplified; expressed in transfected cells; host or cells: yeast AH109
# Excerpt: The interaction of AICD-Ga14 activation domain (AD) with 168(264-304) fragment-DNA binding domain (DBD) activates GAL4-driven beta-galactosidase expression in yeast.
# The intracellular end of human APP was amplified, i.e., AID, was amplified. In order to completely expose AID, 5 amino acids of Aβ and […] (SEQ ID NO:9) were extended in front of AID. The PCR product was recovered and purified. It was then inserted into protein expression vector pGBKT7 for identification by means of sequencing. The successfully constructed vector is named pGBKT7-AID. Positively identified pGBKT7-AID was transferred into yeast AH109, and then cultured on a SD/-Trp plate. […]
# Screening and Identification of Positive Clones: Yeast expression vector pGBKT7 contained the autocrine gene of Trp (tryptophan) and the DNA binding domain of GAL4. pACT2 contained the autocrine gene of Leu (leucine) and the DNA activation structure domain. […] The results were compared and analyzed against information available in GenBank.
# Quantitative Analysis of β-galactosidase Activity: Yeast co-transfected positive clones grown on the plate were picked and cultured further in a SD/Leu/-Trp liquid culture medium at 30° C. overnight. […] The solution was centrifuged and the supernatant was taken to measure its absorbance at 420 nm to calculate its β-galactosidase activity. […]
# [5] = system: mitochondrial membrane potential; assay: Mitochondrial membrane potential after 168 expression; type: cell-based
# Excerpt: MCCP: an ionophore to disrupt proton gradient used as a positive control to decrease mitochondrial membrane potential.
# [6] = system: 239T cells; assay: Apoptosis by annexin V/PI double staining after 168 expression; type: cell-based
# [7] = target: T3, APP (Homo sapiens, UniProt P05067); assay: Anti-APP (369) IP and anti-myc Western blot in co-transfected 293T cells; type: binding; settings: myc-168 or deletion mutants co-transfected with APP into 293T cells
# T3 construct: expressed in transfected cells; host or cells: 293T cells
# Excerpt: Protein expressions are shown in the middle and lower panels.
# Deletion mutants of myc-168 and APP were co-transfected into 293T cells and cell lysates subjected to anti-APP (369) IP and anti-myc WB to detect 168-APP interaction (upper panel).
# [8] = system: Notch; assay: Notch/NICD conversion, Western blot; type: cell-based; settings: overexpression of 168; NotchΔE-myc transfected N2a cells; ratios of NICD to Notch
# Excerpt: (§1) N2a cells stably expressing human APP695 were transfected with NotchΔE-myc(Notch lacking its ectodomain and carrying a myc tag at its C-terminus) for 1 day. Cells were split equally and transfected with 168 with different dosage for 2 days. Conditional media were collected for sAPPα and secretary Aβ assays. Cells were lysed in 6% SDS and assayed for Notch/NICD conversion and APP metabolism. 168/FLJ20551 and Notch/NICD were detected using myc antibody 9E10. APP AICD was detected using APP C-terminus antibody 369. APP βCTFs, intracellular Aβ, and secretary Aβ in conditional media were immunoprecipitated using antibody 4G8 and detected using antibody 6E10. Soluble APPα were detected using 6E10. α-tubulin was used as control.
# [9] = system: mouse fibroblast cells; assay: 168-mediated apoptosis in APP WT and APP/APLP2 DKO cells, annexin V/PI double staining; type: cell-based; settings: mouse fibroblast cells transfected with 168
# Excerpt: APP wild type (WT) and APP/APLP2 double knockout (DKO) mouse fibroblast cells were transfected with control (vector) or 168.
# [10] = system: N2a cells stably expressing human APP695; assay: Aβ generation and APP metabolism, IP and Western blot; type: cell-based
# Excerpt: as §1
# [11] = system: 293T cells; assay: Cytochrome c release from mitochondria, immunoblotting of mitochondria and cytosol; type: cell-based; settings: 293T cells transfected with 168
# Excerpt: Mitochrondia and cytosol were isolated from 293T cells transfected with 168 and subjected to immunoblotting with different antibodies: Tubulin serves as a cytosol marker and CoxIV as a mitochondrial marker.
Molecule,caspase 3 cleavage for activation upon apoptotic treatment [1],interaction with APP-AICD(C99) in cells ([2]; HA-168 deletion mutants and myc-tagged C99 co-transfected into 293T cells),minimal domain of 168 to interact with AICD ([2]; IP-WB),Aβ40 generation [3],intensity of interaction with AID (bait protein) by β-galactosidase activity [4],mitochondrial membrane potential [5],apoptosis [6],interaction with APP in IP-WB [7],conversion of Notch to NICD [8],168-induced cell apoptosis in APP/APLP2 DKO cells compared with APP WT cells [9],"sAPPα ([10]; overexpression of 168, conditional media)","Aβ generation ([10]; overexpression of 168, different dosage, 2 days)",cytochrome c release from mitochondria [11]
CN[C@@H]1C[C@H]2O[C@@](C)([C@@H]1OC)n1c3ccccc3c3c4c(c5c6ccccc6n2c5c31)C(=O)NC4 [staurosporine],cleaved,–,–,–,–,–,–,–,–,–,–,–,–
B1,–,interacts,118-264AA,reduces Aβ40 generation in a dose-dependent manner,fairly intense,decrease,induces apoptosis,interacts,does not affect,dramatically less,slightly increases,inhibits Aβ generation in a dose-dependent manner,induces cytochrome c release
B2,–,–,–,–,–,–,–,still detected,–,–,–,–,–
